These results are taken from a protein production outcome set (Wang et al. 2014).

A short description of the data set: label from the status in PepcDB records.
For “MKNNKKGLWGIIVAVGLFLLSKLKWVFAIFKLAKFSTVFSMFLSLGAYAVLYGWKFGVALIYLLFVHEMGHLWAAKRKGIPTSPAIFIPFMGALIGMKEMPKNAKDEAYIAYMGPLFGLLSFLPAIPLYIMTKEPFWALVILLGSMINFFNLIPVSPLDGGRIISVVSTKIWGAGLILLLGYSIYFKSILGGFIVIIGCMELYRVIKRDEPIKELGHKIYGMKEYVTRLEEELKETGAVHRTIYVMHHEMNALRQREREKELQIGELKKMEVLEYLLPKFEPLDYVPYEDEKDEYTIHIREAFEASERKLNEWKTEKEQQENYYKVDAKTKWTVFACYIGLMVILGYTAYEGYIVLQEHLPTRNV”, the protein production entry is “failed”. “MKNPAEIDVADQQRLESMAVGGLIGFRTLLYKEVLRFWKVSFQTVAAPVLTAVLYLLIFGHVLEDRVRVYDQISYTAFLVPGLVMMSVLQNAFANSSSSLIQSKITGNLVFILLPPLSHWEMFGAYVVASIIRGLCVGLGVLLVTAWFANLHFAHIGWILVFGLMGAGILGTLGLIAGIWAEKFDQLAAFQNFLIMPATFLSGVFYSIHSLPAFWQAVSHANPFFYMIDGFRYGFFGVSDVPPLQSLAVVVVAFVVLAALALRLLRNGYKLRY”: the protein production entry is reported as “failed”.

With “MKNQFVKCISQLLFLLLIIGVLPVYAQKKSKEKIYRLPDDLETLAGDPALLKKPEGLTVAAYAFPNYHASALHNKIYSQGWTEYNLIRSARPWFEGHQQPRTPLLGELDESKPSTWETYNKLCKQSGIDVLIWDWYWYDGKPCLHEALENGFLEASNTKDVKFACMWTNHPWYVLYPTKRTDGSNAYPPSFDAPDFSKEECWKSLSYMISRYCHLENYWRIDDKPVICIWDARRLESKLGIAGVKQLFAELTDYAKKLGHKGLHFHVTGFSCGNMKEEGYDTVGSYNPMDWIAGRFQPKEIELPDYGTVAADVAFKLWDEHHGQFDIPYVPAVAPGWDSTPRYIAPANRPAKADRSQWPGCTIFKNENPASFKAFVQSSFVYLNKHPEVPRILTIACFNEWSEGHYLLPDNRFGYGMLDALGEALGKEGNHEKHGKLEHHHHHH”, the protein production result was “not failed”. Turning to “MKNQSPVPSYEGNVFMIDARDLSIAWSEDSNHWTWLPLPNQNSNTILSSESVMEIAFLKSASWLDVAGKFDTRYLTPRTRYEVVFVVKLEYTFEWETLVKLKLDLPNTWEKPQEQSVDMFDYISDQWLDIPVGEFTTSKKNVGEISFAMYEHECQLWKSGLFVKGVTIRPKY”, the protein production result was “failed”. With “MKPALVVVDMVNEFIHGRLATPEAMKTVGPARKVIETFRRSGLPVVYVNDSHYPDDPEIRIWGRHSMKGDDGSEVIDEIRPSAGDYVLEKHAYSGFYGTNLDMILRANGIDTVVLIGLDADICVRHTAADALYRNYRIIVVEDAVAARIDPNWKDYFTRVYGATVKRSDEIEGMLQEDQIET”, the protein production entry is on record as “not failed”.

With “MKPIQLPLSVRLRDDATFANYYPGANAAALGYVERLCEAEAGWAESLIYLWGHDGVGRSHLLQAACLRFEQFEERTIYLPMADLVQYGPEIFDDLEQCELVCIDDLDVLVGKREWEEGLFHLFNRLRDTGRRLLLAASKSPRELQVKLPDLKSRLTMALIFQLHGLSDEDKLRALQLRASRRGLHLTDEVGRFILNRGSRSMNSLFDLLEQLDRASLQAQRKLTIPFLKETLGWLEHHHHHH”, the protein production entry was “not failed”. As for “MKPLRKIRLGIVGCGIAARELHLPALKNLSHLFEITAVTSRTRSHAEEFAKMVGNPAVFDSYEELLESGLVDAVDLTLPVELNLPFIEKALRKGVHVICEKPISTDVETGKKVVELSEKSEKTVYIAENFRHVPAFWKAKELVESGAIGDPVFMNWQIWVGMDENNKYVHTDWRKKPKHVGGFLSDGGVHHAAAMRLILGEIEWISAVAKDLSPLLGGMDFLSSIFEFENGTVGNYTISYSLKGNERFEITGTKGKISISWDKIVLNEEEMKVPQENSYQKEFEDFYQVVAEGKPNDLGSPVQALKDLAFIEACVRSAGNKVFVSSLL”, the protein production result was “not failed”. With “MKPMEAAMGLIRFCLLFLALATPVNAAKLFLTTEVYPPYNLQASDGSVHGVYFDQLKIVLQDTDTDYEVAVMPWARAIALATTQAMHCVFATARTPEREKLFKWVAPIHTDRNILVARREANIEASSLEDARRYRVGTQRGDYTEALLEKLGFPQVDVGADFEITLNKLKLGRIDLMPMSESTLKSLPANSFKEVITLSRQQLGLACNKTVPDQIIAKLQARLDKLIADGTQQQIFDRYSLVSP”, the protein production entry is on record as “failed”. Take “MKPSLIYMYNINKKQIIISLLSFIFVVAVAFVSLGNYIKQESGEVRQTIIVAFVILVYITFLAMIVIQAVSAFGKMTESTLFRLTSISGKKIVLAILLYAVIYLLIFELIGSIFLYGISMKIIKGTELYEVLFTQSVFNPLKHLFSTMLYVFNLSSILLVLLFSVASVKVFSLKKKKLKYPMVFFLFLLVTKLLGTIYGMLGGLAPAAPLIKKLVYIDESSGADVFLYPEKLMNLYSLSFSIGIFILLVYITGRIIDKKLEV”: the protein production entry is on record as “failed”. For “MKPTLFVLAAGMGSRYGSLKQLDGIGPGGDTIMDYSVYDAIRAGFGRLVFVIRHSFEKEFREKILTKYEGRIPVELVFQELDRLPEGFSCPEGREKPWGTNHAVLMGRDAIREPFAVINADDFYGRNGFEVLARKLMTLEGKQGEYCMVGYRVGNTLSESGGVSRGVCQVDEKHLLTGVVERTGIERTDGTISFRDETGKICTLAEDAPVSMNMWGFTPDYFDYSEELFINFLNAHGQEPKSEFFIPFVVNDLIRSGRASVEVLDTTARWFGVTYSDDRPGVVAKLRELTEAGEYPTKLF”, the protein production result is recorded as “not failed”. Consider “MKPTLFVLAAGMGSRYGSLKQLDGIGPGGDTIMDYSVYDAIRAGFGRLVFVIRHSFEKEFREKILTKYEGRIPVELVFQELDRLPEGFSCPEGREKPWGTNHAVLMGRDAIREPFAVINADDFYGRNGFEVLARKLMTLEGKQGEYCMVGYRVGNTLSESGGVSRGVCQVDEKHLLTGVVERTGIERTDGTISFRDETGKICTLAEDAPVSMNMWGFTPDYFDYSEELFINFLNAHGQEPKSEFFIPFVVNDLIRSGRASVEVLDTTARWFGVTYSDDRPGVVAKLRELTEAGEYPTKLFLEHHHHHH”, for which the protein production entry was “not failed”. In the case of “MKQAIGFIDSGVGGLTVVREVLKQLPHEQVYYLGDTARCPYGPRDKEEVAKFTWEMTNFLVDRGIKMLVIACNTATAAALYDIREKLDIPVIGVIQPGSRAALKATRNNKIGVLGTLGTVESMAYPTALKGLNRRVEVDSLACPKFVSVVESGEYKSAIAKKVVAESLLPLKSTKIDTVILGCTHYPLLKPIIENFMGDGVAVINSGEETASEVSALLDYHNLLDATDEEIEHRFFTTGSTQIFKDIAKDWLNMPDMTVEHIKLGK”, the protein production entry is recorded as “not failed”.

“MKQFVVISGKGGTGKTSVTAGLAAVGKDMVLADCDVDAADLHLVLAPEIRERHDFISGVVASIEPEACISCGLCTTHCRYGAIPQGYAPQVAPEHCEGCGVCAHVCPTGAARLSDRRCGEWYVSDTRFGPMVHAALGIGEENSGKLVSTVRTRARELAEARDASVVLIDGSPGVGCPVIASLAGADAALAVTEPTVSALHDLERVHALARHFDVRMAVLLNKADIHPGMAERIIGYCTTHDLPLVGRFGFSPLFVQAQLEGRTLPEQDSGEWRQRFNGVWNQLLALVLEHHHHHH”: the protein production entry is “failed”. With “MKQKDFFLYAVMSVFLGMQGCASSSDIKQNVGTSEIAHTKQTLQIAGLKHCNNEGNDSIHLNPDEPLTIIVHGCFSSAGRFETLADVYGLYDQQAICFEYDDRKSLEDTSGELVAALNQLSTQNPNQDLHVIGHSQGGLVARRALTSEREDQQTVTAKKVQLTTVSSPFNGIEISSHCGITPLRILSLGIVDLICYAVTGEKYQQIPPNADFIEQPGDLVASVSQHLVIKTDERNSCRKENDKGECIEDDYVFSVNEQSNNQVDDGVNTDLVTVKAGHVEIVGNGESVPTDLINILKQKEVLVDKSGVDEQKQGYLINQLYFD”, the protein production result is listed as “failed”. For the sequence “MKQPFERILREICFMVKVEGRKVLRDFGITPAQFDILQKIYFEGPKRPGELSVLLGVAKSTVTGLVKRLEADGYLTRTPDPADRRAYFLVITRKGEEVIEKVIERRENFIEKITSDLGKEKSSKILDYLKELKGVMERNFSKQ”, the protein production entry is “not failed”.
